Reference: patent publication US20040253685
Changes are numbered by the printed parent chain.

Experiments:
[1] = biological target: T1, wild type bovine endothelial nitric oxide synthase (eNOS) (UniProt P29473)
T1 sequence: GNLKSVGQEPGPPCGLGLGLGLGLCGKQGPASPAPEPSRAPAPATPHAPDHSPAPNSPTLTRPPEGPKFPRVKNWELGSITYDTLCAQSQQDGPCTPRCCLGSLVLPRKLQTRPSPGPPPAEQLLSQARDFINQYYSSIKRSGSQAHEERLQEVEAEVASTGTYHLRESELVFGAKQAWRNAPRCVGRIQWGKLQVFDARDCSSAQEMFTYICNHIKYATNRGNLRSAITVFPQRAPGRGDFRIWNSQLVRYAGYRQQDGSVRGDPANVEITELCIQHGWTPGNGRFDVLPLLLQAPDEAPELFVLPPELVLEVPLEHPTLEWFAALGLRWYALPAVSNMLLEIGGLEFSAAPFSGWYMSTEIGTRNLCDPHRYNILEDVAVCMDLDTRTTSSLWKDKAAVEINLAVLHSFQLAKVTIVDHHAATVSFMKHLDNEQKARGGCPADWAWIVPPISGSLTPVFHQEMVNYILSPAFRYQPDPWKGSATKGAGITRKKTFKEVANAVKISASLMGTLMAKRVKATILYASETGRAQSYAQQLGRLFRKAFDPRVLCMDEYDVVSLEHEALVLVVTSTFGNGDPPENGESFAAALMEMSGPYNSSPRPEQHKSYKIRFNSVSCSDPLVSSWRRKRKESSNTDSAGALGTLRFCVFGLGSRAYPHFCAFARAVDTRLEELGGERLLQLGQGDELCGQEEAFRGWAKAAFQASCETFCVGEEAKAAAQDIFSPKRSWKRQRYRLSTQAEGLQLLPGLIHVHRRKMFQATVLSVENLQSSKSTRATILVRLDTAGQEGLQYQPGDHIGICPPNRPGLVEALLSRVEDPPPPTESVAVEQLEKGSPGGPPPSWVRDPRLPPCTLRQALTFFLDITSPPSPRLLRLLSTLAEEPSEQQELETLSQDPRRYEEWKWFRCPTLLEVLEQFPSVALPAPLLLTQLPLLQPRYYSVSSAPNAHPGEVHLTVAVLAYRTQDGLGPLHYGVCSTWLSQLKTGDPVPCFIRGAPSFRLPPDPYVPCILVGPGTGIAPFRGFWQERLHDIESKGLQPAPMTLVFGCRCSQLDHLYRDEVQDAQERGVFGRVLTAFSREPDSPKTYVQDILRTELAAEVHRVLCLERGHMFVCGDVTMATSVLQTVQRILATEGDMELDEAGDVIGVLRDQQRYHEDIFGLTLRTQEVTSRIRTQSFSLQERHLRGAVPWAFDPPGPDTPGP

[2] = system: T2, wild-type eNOS peptide, amino acids 1174-1194
T2 sequence: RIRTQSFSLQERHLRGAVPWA

[3] = system: mutant eNOS peptide, amino acids 1174-1194 with S1179 changed to an alanine
eNOS S1179A (bovine) = biological target: T3, eNOS S1179A (bovine) (UniProt P29473)
T3 sequence: T1 sequence with S1178A

Row | Substance | in vitro kinase reaction, incorporation of 32P into the substrate (histone 2B) | in vitro kinase reaction, incorporation of 32P into the substrate [1] | also measured
1 | HA-tagged kinase inactive Akt (K179M) | the inactive Akt did not significantly increase histone or eNOS phosphorylation | the inactive Akt did not significantly increase histone or eNOS phosphorylation | 
2 | HA-tagged wild-type Akt (protein kinase B) | 69.3±2.9 ... pmol of ATP/nmol substrate | 115.4±3.8 pmol of ATP/nmol substrate | 
3 | constitutively active form of Akt (myr-Akt) |  |  | basal production of NO from adenovirus infected BLMVEC [1]: myr-Akt stimulates the basal production of NO from BLMVEC
4 | recombinant Akt purified from baculovirus infected SF9 cells |  |  | in vitro kinase reaction, phosphate incorporated into the peptide (Cerenkov counting) [2]: wild-type peptide incorporated 24.6±3.7 nmol phosphate/mg; in vitro kinase reaction, phosphate incorporated into the peptide (Cerenkov counting) [3]: the alanine mutant peptide which incorporated 0.22±0.02 nmol phosphate/mg; in vitro kinase reaction with recombinant Akt, incorporation of 32P into eNOS (eNOS S1179A (bovine)): mutation of S1179 to A markedly reduces Akt-dependent phosphorylation of eNOS compared to the wild-type protein
